The test deals with T1, neural epidermal growth factor-like like 2 (NELL2), C-terminally 6xHis-tagged recombinant (UniProt Q61220 25-819).
T1 construct: NELL2, secreted protein; also called purified recombinant NELL2; source: human 293-F cells, transiently expressed, purified from conditioned medium (ammonium sulphate, Ni-NTA, PD-10)
T1 sequence (looked up): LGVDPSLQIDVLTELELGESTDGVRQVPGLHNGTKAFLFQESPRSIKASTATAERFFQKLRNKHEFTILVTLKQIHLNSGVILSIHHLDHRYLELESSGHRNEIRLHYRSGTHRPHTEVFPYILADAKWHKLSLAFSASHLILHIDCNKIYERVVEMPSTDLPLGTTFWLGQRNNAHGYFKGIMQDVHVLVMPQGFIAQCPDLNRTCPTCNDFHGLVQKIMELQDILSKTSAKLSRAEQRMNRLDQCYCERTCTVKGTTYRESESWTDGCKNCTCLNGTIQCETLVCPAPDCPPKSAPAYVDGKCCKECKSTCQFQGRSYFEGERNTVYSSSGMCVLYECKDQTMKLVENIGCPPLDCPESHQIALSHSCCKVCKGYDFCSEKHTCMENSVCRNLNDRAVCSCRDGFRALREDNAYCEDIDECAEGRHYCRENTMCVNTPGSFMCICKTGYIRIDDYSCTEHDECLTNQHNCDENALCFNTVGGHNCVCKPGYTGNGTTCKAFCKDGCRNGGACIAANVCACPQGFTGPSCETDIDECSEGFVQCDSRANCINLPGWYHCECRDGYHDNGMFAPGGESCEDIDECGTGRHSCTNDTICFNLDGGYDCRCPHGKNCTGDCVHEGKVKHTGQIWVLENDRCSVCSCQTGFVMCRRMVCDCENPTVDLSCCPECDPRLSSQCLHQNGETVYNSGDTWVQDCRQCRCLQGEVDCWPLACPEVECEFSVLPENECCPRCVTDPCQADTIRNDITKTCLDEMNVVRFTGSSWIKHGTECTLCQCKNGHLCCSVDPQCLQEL
In words: SPR; purified NELL2 immobilised on series S sensor chip CM5; purified NICOL in PBS as analyte; Biacore T200. Conditions: both partners purified. For orientation: Surface plasmon resonance follows binding to a sensor surface in real time, without labels.

B1: NELL2-interacting cofactor for lumicrine signalling (NICOL), 6xHis-tagged recombinant (natural protein, mouse, UniProt Q3UR78 29-90, looked up)
chain: EPATGSAVPAQSRPCVDCHAFEFMQRALQDLRKTAYSLDARTETLLLQAERRALCACWPAGR
notes: mouse NICOL (predicted gene Gm1673, ortholog of human C4orf48), small secreted protein; cDNA encoding mouse NICOL followed by 6xHis; purified from conditioned medium, so without its signal peptide; also called purified recombinant NICOL protein; source: human 293-F cells, transiently expressed, purified from conditioned medium (ammonium sulphate, Ni-NTA, PD-10)
B1: the Kd – broadly, the concentration at which binding is half-saturated – is 87 nM; the koff – broadly, a measure of how fast the partners let go of each other – was 0.0062 s⁻¹; the kon – broadly, the rate constant with which the complex forms – came to 72000 M⁻¹ s⁻¹.

(Values after article PMC10125973, “A small secreted protein NICOL regulates lumicrine-mediated sperm maturation and male fertility” (Nature Communications, 2023).)
